Assay results from the supplement of paper PMC7877785.
± gives the uncertainty stated by the source.

Assay: self-splicing fitness, log relative to wild type (ln ratio); higher = more splicing; Tetrahymena group I intron in knt gene, E. coli kanamycin selection, DiMSum; sequences stand for … in CUCUCU…GGAGGGAAAAGUUAUCAGGCAUGCACCUGGUAGCUAGUCUUUAAACCAAUAGAUUGCAUCGGUUUAAAAGGCAAGACCGUCAAAUUGCGGGAAAGGGGUCAACAGCCGUUCAGUACCAAGUCUCAGGGGAAACUUUGAGAUGGCCUUGCAAAGGGUAUGGUAAUAAGCUGACGGACAUGGUCCUAACCACGCAGCCAAGUCCUAAGUCAACAGAUCUUCUGUUGAUAUGGAUGCAGUUCACAGACUAAAUGUCGGUCGGGGAAGAUGUAUUCUUCUCAUAAGAUAUAGUCGGACCUCUCCUUAAUGGGAGCUAGCGGAUGAAGUGAUGCAACACUGGAGCCGCUGGGAACUAAUUUGUAUGCGAAAGUAUAUUGAUUAGUUUUGGAGUACUCGUGGUCG
How it was run: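 A randomised library covering all eight P1ex-region intron nucleotides was built with the intron in the knt kanamycin-resistance gene on pET-22b(+) and held in E. coli BL21(DE3). Cells were grown overnight at 37°C or 30°C on LB agar, with or without 25 μg/mL kanamycin, plus 100 μg/mL carbenicillin, 50 μM IPTG and 0.2% rhamnose, and pooled colonies were amplicon-sequenced on an Illumina HiSeq 2500. DiMSum fitness is the error-weighted combination of wild-type-normalised replicate fold changes, kanamycin versus none.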

Row | Sequence | self-splicing fitness (ln) (30 °C) | self-splicing fitness (ln) (37 °C)
1 | CUCCAGCAAUAUUACGAGUU | -2.87 ± 0.17 | -2.66 ± 0.29
2 | GUCGAGCAAUAUUACGCACA | -1.76 ± 0.21 | -0.707 ± 0.18
3 | UUUUAGCAAUAUUACGCGGG | -0.691 ± 0.17 | -0.801 ± 0.17
4 | GUCCAGCAAUAUUACGUCUA | -0.899 ± 0.11 | -0.668 ± 0.12
5 | UUGAAGCAAUAUUACGAAUG | -0.746 ± 0.081 | -0.263 ± 0.11
6 | UUGCAGCAAUAUUACGGCUA | 0.128 ± 0.045 | 0.358 ± 0.06
7 | AGGAAGCAAUAUUACGAUUA | -1.47 ± 0.08 | -1.21 ± 0.069
8 | GUCUAGCAAUAUUACGAAAU | 0.0935 ± 0.11 | 0.4 ± 0.1
9 | CAGAAGCAAUAUUACGUUCU | -2.75 ± 0.11 | -1.88 ± 0.1
10 | UAGCAGCAAUAUUACGAGUC | -4.81 ± 0.34 | -2.22 ± 0.22
11 | CGGCAGCAAUAUUACGUGCG | -3 ± 0.16 | -2.54 ± 0.16
12 | AUCAAGCAAUAUUACGCAGA | -2.21 ± 0.18 | -2.52 ± 0.23
13 | UCCCAGCAAUAUUACGCUGG | -3.94 ± 0.16 | -2.62 ± 0.16
14 | UUCAAGCAAUAUUACGCUAG | -2.23 ± 0.23 | -2.32 ± 0.26
15 | GCGCAGCAAUAUUACGUAGG | -0.838 ± 0.061 | -0.551 ± 0.086
16 | AGGCAGCAAUAUUACGGCUC | -0.958 ± 0.17 | -0.371 ± 0.19
17 | CUGCAGCAAUAUUACGGUAU | -4.53 ± 0.25 | -2.85 ± 0.19
18 | CACUAGCAAUAUUACGUCUU | -3.77 ± 0.3 | -2.75 ± 0.26
19 | CCGCAGCAAUAUUACGGUAC | -3.8 ± 0.17 | -2.8 ± 0.2
20 | CUCAAGCAAUAUUACGCAAU | -3.56 ± 0.31 | -1.53 ± 0.32
21 | GAUGAGCAAUAUUACGUGCG | -3.79 ± 0.17 | -1.8 ± 0.13
22 | UUUUAGCAAUAUUACGGAAU | – | -2.48 ± 0.4
23 | GCUGAGCAAUAUUACGGGUC | -4.37 ± 0.46 | -1.36 ± 0.24
24 | UAAAAGCAAUAUUACGGCAG | -0.504 ± 0.079 | -0.106 ± 0.097
25 | GUUCAGCAAUAUUACGGUUG | -1.9 ± 0.089 | -0.591 ± 0.1

Row | Sequence | self-splicing fitness (ln) (30 °C) | self-splicing fitness (ln) (37 °C)
26 | AACCAGCAAUAUUACGGCAA | -0.217 ± 0.07 | -0.0314 ± 0.082
27 | GAAUAGCAAUAUUACGCCUU | -0.0381 ± 0.072 | 0.111 ± 0.081
28 | AUUUAGCAAUAUUACGUCCA | -0.944 ± 0.15 | -0.558 ± 0.27
29 | UGUGAGCAAUAUUACGUACA | -1.04 ± 0.091 | -0.41 ± 0.1
30 | AAAUAGCAAUAUUACGUCGC | -2.54 ± 0.15 | -2.54 ± 0.28
31 | AAAAAGCAAUAUUACGCGCA | -0.39 ± 0.082 | 0.127 ± 0.11
32 | CUAAAGCAAUAUUACGCAGU | -3.13 ± 0.31 | -3.43 ± 0.32
33 | UCGAAGCAAUAUUACGGUCC | -4.15 ± 0.42 | -1.95 ± 0.31
34 | AUCAAGCAAUAUUACGGAGU | -2.18 ± 0.095 | -0.783 ± 0.11
35 | AAUAAGCAAUAUUACGCUAA | -2.46 ± 0.16 | -0.891 ± 0.13
36 | CGUAAGCAAUAUUACGUUGU | -3.29 ± 0.18 | -2.53 ± 0.22
37 | UCUGAGCAAUAUUACGGUUU | -3.14 ± 0.23 | -1.4 ± 0.24
38 | GUUGAGCAAUAUUACGCGGG | -3.17 ± 0.15 | -2.51 ± 0.26
39 | GCUUAGCAAUAUUACGUCAU | -2.19 ± 0.14 | -0.965 ± 0.12
40 | GGUGAGCAAUAUUACGCGAC | -3.49 ± 0.29 | -3.12 ± 0.25
41 | CCGCAGCAAUAUUACGUGUU | -3.84 ± 0.14 | -3.1 ± 0.21
42 | AAUAAGCAAUAUUACGGGUC | -3.18 ± 0.2 | -2.53 ± 0.22
43 | AACUAGCAAUAUUACGGUAA | -1.49 ± 0.094 | -0.267 ± 0.095
44 | UUCGAGCAAUAUUACGUUGG | -4.14 ± 0.39 | -2.03 ± 0.43
45 | UUAGAGCAAUAUUACGGGAC | -3.75 ± 0.36 | -2.8 ± 0.22
46 | UGCUAGCAAUAUUACGAUGG | -1.52 ± 0.067 | -0.47 ± 0.088
47 | CGCGAGCAAUAUUACGUUAA | -3.18 ± 0.16 | -4.09 ± 0.36
48 | UCCGAGCAAUAUUACGGCAA | -1.43 ± 0.11 | -0.233 ± 0.13
49 | CAGUAGCAAUAUUACGGUUG | -1.52 ± 0.065 | -0.838 ± 0.083
50 | CGCAAGCAAUAUUACGACCC | -2.18 ± 0.3 | 0.0863 ± 0.29

Row | Sequence | self-splicing fitness (ln) (30 °C) | self-splicing fitness (ln) (37 °C)
51 | CGCCAGCAAUAUUACGAGAC | -3.23 ± 0.33 | -3.54 ± 0.46
52 | GUACAGCAAUAUUACGGCUG | -3.82 ± 0.21 | -1.38 ± 0.14
53 | UACAAGCAAUAUUACGGUGU | -3.91 ± 0.17 | -1.71 ± 0.12
54 | GUCGAGCAAUAUUACGGAUG | -1.27 ± 0.095 | -0.69 ± 0.13
55 | CUGGAGCAAUAUUACGGUGG | -3.55 ± 0.14 | -1.93 ± 0.12
56 | CCCCAGCAAUAUUACGUUAA | -3.33 ± 0.14 | -2.76 ± 0.13
57 | UAACAGCAAUAUUACGGGGG | -3.25 ± 0.27 | -1.9 ± 0.17
58 | GUGGAGCAAUAUUACGUAUG | -3.15 ± 0.24 | -2.3 ± 0.24
59 | GUGUAGCAAUAUUACGGAAU | -1.42 ± 0.13 | -1.64 ± 0.25
60 | UUGUAGCAAUAUUACGGUGA | -1.11 ± 0.093 | -0.318 ± 0.097
61 | ACCGAGCAAUAUUACGCGGA | -2.09 ± 0.1 | -0.721 ± 0.089
62 | GAUGAGCAAUAUUACGUAAC | -1.63 ± 0.12 | -1.9 ± 0.3
63 | GGACAGCAAUAUUACGAACA | -0.522 ± 0.18 | -0.703 ± 0.18
64 | UUCAAGCAAUAUUACGAACG | -4.29 ± 0.36 | -2.46 ± 0.25
65 | GUGUAGCAAUAUUACGAGCG | – | -0.927 ± 0.34
66 | CAGCAGCAAUAUUACGCUGC | -3.06 ± 0.22 | -2.36 ± 0.2
67 | CAGUAGCAAUAUUACGGUAU | -3.79 ± 0.27 | -3.02 ± 0.28
68 | UAAUAGCAAUAUUACGGGGA | -1.91 ± 0.15 | -2.65 ± 0.34
69 | AUAAAGCAAUAUUACGGAAU | -1.16 ± 0.077 | -0.475 ± 0.1
70 | GUAUAGCAAUAUUACGCAGC | -2.32 ± 0.37 | -1.25 ± 0.33
71 | GGCCAGCAAUAUUACGUGUG | -1.15 ± 0.051 | -0.323 ± 0.066
72 | AAUUAGCAAUAUUACGGGCA | -0.73 ± 0.14 | 0.186 ± 0.11
73 | CGCGAGCAAUAUUACGUGCU | -2.71 ± 0.14 | -2 ± 0.22
74 | CUUUAGCAAUAUUACGAUUA | – | -1.92 ± 0.31
75 | GUGAAGCAAUAUUACGUACG | -0.64 ± 0.16 | 0.312 ± 0.15

Row | Sequence | self-splicing fitness (ln) (30 °C) | self-splicing fitness (ln) (37 °C)
76 | ACACAGCAAUAUUACGUAUG | -2.32 ± 0.076 | -1.9 ± 0.098
77 | CGUUAGCAAUAUUACGAGGU | -4.3 ± 0.29 | -2.49 ± 0.23
78 | UUGAAGCAAUAUUACGAGGG | -1.6 ± 0.17 | -1.37 ± 0.24
79 | GCAAAGCAAUAUUACGAGCU | -3.48 ± 0.16 | -1.5 ± 0.12
80 | AUGCAGCAAUAUUACGCAUC | – | -2.67 ± 0.28
81 | AAUGAGCAAUAUUACGGGUU | -2.36 ± 0.14 | -2.13 ± 0.2
82 | CAGUAGCAAUAUUACGGCAA | -3.53 ± 0.39 | -1.86 ± 0.27
83 | AGCAAGCAAUAUUACGGUAG | -3.4 ± 0.14 | -2.75 ± 0.15
84 | ACCCAGCAAUAUUACGACUC | -0.5 ± 0.061 | -0.482 ± 0.079
85 | UGUAAGCAAUAUUACGUACA | -0.772 ± 0.098 | -0.557 ± 0.16
86 | UUCAAGCAAUAUUACGGGAG | -1.78 ± 0.098 | -0.95 ± 0.097
87 | CCCUAGCAAUAUUACGACAG | -2.34 ± 0.13 | -3.3 ± 0.29
88 | AGGAAGCAAUAUUACGUGUU | -3.8 ± 0.21 | -0.935 ± 0.14
89 | ACUCAGCAAUAUUACGACGC | -0.134 ± 0.074 | 0.447 ± 0.088
90 | UUUUAGCAAUAUUACGUUUU | -3.49 ± 0.21 | -2.22 ± 0.27
91 | GGCAAGCAAUAUUACGAUAU | -1.29 ± 0.073 | -0.406 ± 0.096
92 | UUAAAGCAAUAUUACGGGAC | -3.27 ± 0.24 | -2.24 ± 0.28
93 | CUAAAGCAAUAUUACGACGG | -0.113 ± 0.051 | 0.466 ± 0.082
94 | CAAAAGCAAUAUUACGCAAG | -1.52 ± 0.12 | 0.0344 ± 0.12
95 | AGGAAGCAAUAUUACGCUAA | -1.19 ± 0.13 | -1.89 ± 0.27
96 | CUGGAGCAAUAUUACGGAGG | – | -2.18 ± 0.36
97 | UGGGAGCAAUAUUACGUAGC | -3.22 ± 0.27 | –
